In the supplement of paper PMC9170038:

Tests used:
MS2 coat protein [1] = assay: apparent KD of MS2 coat protein, switch OFF state (with FMN for OFF switches, without FMN for ON switches); designed switch direction (-1 OFF switch, 1 ON switch): -1; higher = weaker reporter binding; conditions: FMN input: 0 or 200 uM; Eterna round: R93 (includes R88 designs)
How it was run: (§1)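 Titration buffer: 100 mM Tris-HCl pH 7.5, 80 mM KCl, 4 mM MgCl2, without or with constant ligand. Designed RNA switches transcribed on-chip from Illumina sequencing clusters received SNAP-549-labelled MS2 coat protein in twofold steps from 0.7 or 1.5 nM to 3 µM. Apparent KD is the median per design of fits to normalised cluster binding curves.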

MS2 coat protein [2] = assay: apparent KD of MS2 coat protein, switch ON state; designed switch direction (-1 OFF switch, 1 ON switch): -1; higher = weaker reporter binding; conditions: FMN input: 0 or 200 uM; Eterna round: R93 (includes R88 designs)
How it was run: as §1

Row | Sequence | apparent KD of MS2 coat protein (MS2 coat protein [1]) [nM] | apparent KD of MS2 coat protein (MS2 coat protein [2]) [nM]
1 | AGUUGGCGAGGAUAUACAUGAGGAUCACCCAUGUGAGAGAAAAAAGUGAGAAAGAAAAGUAGAAGGCGCUCACA [JL Lego Mod 12] | 49.7 | 62.1
2 | AUAGGCCUAGGAUAUACAUGAGGAUCACCCAUGUUAAUAUUUCAAACAUGAUAAACGUGUAGAAGGAGGAAUAA [JR_Exc003_Sub303] | 50.8 | 41.7
3 | AUAGGUCAAGGAUAUACAUGAGGAUCACCCAUGUAAAUAACUCCAUAAAACUCCACAAGUAGAAGGUGAAAUAA [JR_Exc003_Sub202] | 15.8 | 17.9
4 | AUAGUACAUGAGGAUCACCCAUGUCAGGAUAUUGGAUAUGACAUGAAAAAAAUGUUAACGAGAAGGGACUAUAA [EX1 Malc#17] | 80.7 | 58.6
5 | AUCAUGUUAGGAUAUUAAAGAAAAGAAAAGAAAGAAAAGAAUAAGAAGGAACAUGAGGAUCACCCAUGUAAGAA [EteRNA is fun!] | 29.7 | 30.4
6 | AUGUAGGGAGGAUAUACAUAGAUACAGAUUCGUGUAGAACUACAUGAGGAUCACCCAUGUAGAAGGCCCUAAAA [Mat - Same state - Mayanna Mod - D124] | 43.1 | 20.1
7 | CAAAAACAUGAGGAUCACCCAUGUGAGGAUAUACGAAAGUAGAAGGCACUAAAACAAAACAGAAGGACAAAACA [Meechl Ex1 R2 m3] | 24.6 | 17.9
8 | CAGAGACAUGAGGAUCACCCAUGUUAGGAUAUGCGUGAAAGAAAAAAAAAGUUAAAAAGCAGAAGGAACAGAGG [JR_Exc001_Sub310] | 33.6 | 152
9 | CAGUACUGAGGAUAUACAUGAGGAUCACCCAUGUGAAAAAGCUACGAAAGUAGCACAUGUAGAAGGCAGUACUG [Ex3: 807] | 281 | 319
10 | CAGUACUGAGGAUAUACAUGAGGAUCACCCAUGUGAUCAAGCUACGAAAGUAGCAAAUGUAGAAGGCAGUACUG [Ex3: 809] | 31.7 | 40.7
11 | CAUAAACAUGAGGAUCACCCAUGUGAGGAUAUGAUAUUACUAGGACGGCUGUAAUCAAUCAGAAGGCACAUCAA [JR_Exc--1_Sub1206] | 41.5 | 22.5
12 | CCCAUGUCAGGAUAUCAGUAGUAAAAAAAAAAAAUUACUACUGAGAAGGGACAUGAGGAUCACCCAUGUCCCUU [EX4 314: Super Stable 14] | 14.2 | 16.9
13 | CCUGUGUGAGGAUAUGGUAUAAAAAAAAAAAAAUAGCUCCUCCAGAAGGCACAUGAGGAUCACCCAUGUCGUGG [Jolly's Folly 17 - Jieux - Exclusion 4] | 57.1 | 26.9
14 | CGCAAGUCAGGAUAUUCGACAAGUAAAUCAGUAGAUCAGAAGAAGAAGGGACAUGAGGAUCACCCAUGUAAGUA [JR_Exc004_Sub404] | 26.3 | 29.1
15 | CGCUAGUCAGGAUAUACGAACAUGUCAAAAGACGUGAAAAAACAUGAGGAUCACCCAUGUAGAAGGGACUAGCG [Mat - Exclusion 2 - JL mod - D17] | 14.9 | 16.2
16 | CUCAAGUAAGGAUAUGGAAGAAAAGAAGAGAAAGAAAAGAACCAGAAGGUACAUGAGGAUCACCCAUGUAAGAA [EteRNA is fun!] | 24.6 | 37.2
17 | CUCAAGUGAGGAUAUAAAAGAAAAGAAGAGAAAGAAAAGAAUUAGAAGGCACAUGAGGAUCACCCAUGUAAGAA [EteRNA is fun!] | 25.5 | 39.4
